# doi:10.1101/2024.05.08.592561 (bioRxiv, 2024)
# Assays:
# [1] = target: T1, ParT (Streptomyces coelicolor A3(2), plasmid …, UniProt Q8VWE5 1-325); experiment: BLI
# T1 sequence: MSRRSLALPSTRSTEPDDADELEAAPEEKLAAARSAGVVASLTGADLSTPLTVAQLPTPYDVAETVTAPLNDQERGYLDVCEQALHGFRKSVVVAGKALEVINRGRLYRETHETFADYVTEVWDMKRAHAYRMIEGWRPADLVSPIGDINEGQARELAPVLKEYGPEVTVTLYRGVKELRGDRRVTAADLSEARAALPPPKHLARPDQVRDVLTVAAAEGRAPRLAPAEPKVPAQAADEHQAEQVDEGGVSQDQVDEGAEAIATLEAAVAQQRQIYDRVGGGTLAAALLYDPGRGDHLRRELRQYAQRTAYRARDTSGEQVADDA
# [2] = target: the molecule itself; experiment: mass photometry
binder,measurement,setting,value
40-bp scrambled parS duplex (dsDNA) DNA 1: ATCGGGCACCTTAGGGCAATCGTAAGTTCGGCGCACGACC DNA 2: GGTCGTGCGCCGAACTTACGATTGCCCTAAGGTGCCCGAT,binding result,[1],no binding
40-bp parS duplex (dsDNA) DNA 1: GGCCGACCTCGTGTCTCCAATTGGAGACATCAACGAGGGC DNA 2: GCCCTCGTTGATGTCTCCAATTGGAGACACGAGGTCGGCC,Kd,[1],680 ± 200 nM
ParT-His6 (wild type) (natural protein) MSRRSLALPSTRSTEPDDADELEAAPEEKLAAARSAGVVASLTGADLSTPLTVAQLPTPYDVAETVTAPLNDQERGYLDVCEQALHGFRKSVVVAGKALEVINRGRLYRETHETFADYVTEVWDMKRAHAYRMIEGWRPADLVSPIGDINEGQARELAPVLKEYGPEVTVTLYRGVKELRGDRRVTAADLSEARAALPPPKHLARPDQVRDVLTVAAAEGRAPRLAPAEPKVPAQAADEHQAEQVDEGGVSQDQVDEGAEAIATLEAAVAQQRQIYDRVGGGTLAAALLYDPGRGDHLRRELRQYAQRTAYRARDTSGEQVADDA,stoichiometry N,[2],2
